Reference: the domain aggregation screens of Martell et al. (2025)

Test: soluble fraction after stress (log2 fold change); higher = more stays soluble; pooled small domains, quantitative proteomics
Details: stress: 75 degC
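Also: 20 min heating vs room temperature control held 20 min.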

| Sequence | soluble fraction (log2) |
| --- | --- |
| HMAEDGNMTFEEYAKRWLARQVRYAPSTLESYRRMLGRVYPFIGAIPINRLRPIALENLLAELRKRT | -0.582 |
| HMAEEFESMTEARRLELARLVDSRGFVRVTDAAEELGVSDVTIRGDLSELERRGLLTRVHGGAMPVT | -0.00431 |
| HMAEKEYYYATDALNLRQGPGMEHTVKGEVVLGERVALLGLEGKWAKIQNAQGTTGYVFSAYLAPS | -0.196 |
| HMAEMLENQLKHAKSKQEANEYIAAAIGGVSDDDPDKEYLVAAYNEISKEFHHSSAYHRLPDT | 0.16 |
| HMAEMRYLDQIYEVNVPLPDLSLEDGDLLARWAVNFHQRYEELFSYRQSDQEIRLVTLRVTVLGELP | -0.65 |
| HMAENMNAALRVSSLINQIGTVNAKAKDRIESARKAYDALSEAQKAYVANLTTLETAETSLSKL | 0.0786 |
| HMAENTIPSVIGKTLSDATFLLESYGYERGGVSEEYSEMPKGVVIRQSPQAGSSADPGTKVNLVVSLGEEI | 0.538 |
| HMAENTKKWDETGRRYRSYIKLEKRLSENTVESYMRDYMQFAHFILRQWDVAPHKVEPQMVERYMAWLYER | -0.795 |
| HMAEPIAAGKYTVSTSGSVLNMRVSPDADSQVLEKIPNGTIVEVTKSVLGWAYVTYNSAQGWVSSAYLV | -1.62 |
| HMAEPLMTQIVEIEYADAEGLRENLEQFLTRLDEKTLLGSVLVDRHTNSLIIQAVRSDLERMLPLIETLDR | -0.804 |
| HMAEPLYKQVKNKIIQNLTSDEWKPGSVIPSETKLAETYGVGVSTIRMAIGELVAARILIRRQGKGTFVSS | -2.1 |
| HMAEQDILQSVYPHIGGQDNVSRTISRNGTLYLMLKDASAVDLKAVKQVPGIADAALERGRLTLQLEE | -0.203 |
| HMAEQLGNSRTANMVMLGAMIERTGVISIDSAMEALKATFGPKKEHLLPINRQAMEAGAAAARAV | 0.104 |
| HMAERVWASLLEIKNAVAIEDAKTLEDVDNSEKIAEERIAALNDDAKHPLAIAFIGKLRQDIAEKKIELA | 0.413 |
| HMAESSPYTVRPGDTLWKILAQTQNARYNDFPYLYRKFRELNPNITDLNHIVSGQKIIVPHIPG | -0.331 |
| HMAESTRSRILNAAIEMMETGGESSVRLSAIAEALGIKEPSIYHHFTNRTELVNAAYIEWYW | -1.07 |
| HMAEVDREEALRIALAHAAVARRDVRNLKIERGEENGVPVYKVEFETAFGDFDVAVSRRSGDVVDAD | -0.0382 |
| HMAEVIYGAGKTPAQMLGILRTMQAHGQKTVLITRLREEAAEEIGREIPLQYDKTAGVGIVGTLPQPDG | -0.102 |
| HMAEVPSLIGKSLDAAKQAIIDAGFKVGSVSYDNSDSYGKGQVMWQQYEPSTKVKKGSSISIKVSKGS | -0.00107 |
| HMAEVRTLLVPIELAGMRFDQVLAELLPEFSRSRLAAWIKSGDALLDGHDAKPKGVVRGGEQIEIRLA | -0.0127 |
| HMAFAVWVKLVAIGPNYAQLEIEQGTQRNVRTLRPGDDAPEGVRLLSLTPTHAEVQANGIARKLALGQGMA | -3.22 |
| HMAFDESLVRSIQELLSELGYSPGKIDGLLGAKTVAAIKAFELEINKDQLTGEPSEELLIALQLAIRSSKM | -1.81 |
| HMAFDGIVLKNITNALKELINGKINKIQQSSKDNLTLSIYNQKSYNLYIDISANNYRVNLTTHSE | 0.126 |
| HMAFDYETYQLTSREFSIIELVADGRSNREIAEALYLGEGTVRNYLSSILEKLELRDRTQLAVFFYQHL | -2.3 |
| HMAFIEIMTEGDADGRGFQYPIPTYSITRDFDWSETENNKLLFEMTAKYGTPYFSNYINSDMEPSDV | -1.13 |
| HMAGAITEREVEVLELLSRGLGNKEIAKELFVSEATVKSHLSHIYTKLAVDTRAGAVAAAIERRIIRAWR | -2.99 |
| HMAGASQAVKAQLRLREMILAGELPGGARIAELTLVEKLGVSRTPIRAALMRLEQEGLLHRLPGGGYAVRT | -2.27 |
| HMAGDDEIEKIAQDILAAWPDKVAAYQAGNKGLMGLFMGELMKKSQGKANPKVASGIIQKLLD | 0.0201 |
| HMAGEDPANLELMRLMDEEYMEHPTKGVLGMVDFLRALGILTGPKRVRRLLRKMGIMAIYPK | 0.159 |
| HMAGGVFELTGKVTADAKAGDLVYVKAATGAGTKPVVTTVKTGADVIIGWLKEPVSSASVDQKMQVVLA | 0.267 |
